Square brackets hold non-standard residues; d marks the D form. Primed or numbered codes have the meaning given here. * marks the point of attachment. m‑dPEG(4)″ = m-dPEG(4) acid, coupled to Acp (R^111 group of Formula (4)), COCCOCCOCCOCCC(=O)*; m‑dPEG(4) = m-dPEG(4) acid, coupled to Acp, with Acp forms R^111 of Formula (4); 2Nal = N[C@@H](Cc1ccc2ccccc2c1)C(=O)O; R^118 = not defined here; Ahx = NCCCCCC(=O)O
B1: 3d (peptide)
peptide: {R^118}-RQNTRYSRIEWIKIQIISKLRL-NH2
modifications: reading uncertain; also: N-terminal R118 group (Formula 11) structure not given here, printed as R118-RQNTRYSRIEWIKIQIISKLRL-NH2
B2: PDM-31 (peptide)
peptide: {m‑dPEG(4)″-Ahx}-[2Nal]YIEWIKIQIISKLRL-NH2
SMILES: CC[C@H](C)[C@H](NC(=O)[C@H](Cc1ccc(O)cc1)NC(=O)[C@H](Cc1ccc2ccccc2c1)NC(=O)CCCCCNC(=O)CCOCCOCCOCCOC)C(=O)N[C@@H](CCC(=O)O)C(=O)N[C@@H](Cc1c[nH]c2ccccc12)C(=O)N[C@H](C(=O)N[C@@H](CCCCN)C(=O)N[C@H](C(=O)N[C@@H](CCC(N)=O)C(=O)N[C@H](C(=O)N[C@H](C(=O)N[C@@H](CO)C(=O)N[C@@H](CCCCN)C(=O)N[C@@H](CC(C)C)C(=O)N[C@@H](CCCNC(=N)N)C(=O)N[C@@H](CC(C)C)C(N)=O)[C@@H](C)CC)[C@@H](C)CC)[C@@H](C)CC)[C@@H](C)CC

Target: T1, myostatin (UniProt O14793 267-375, limits assumed)
T1 sequence (looked up): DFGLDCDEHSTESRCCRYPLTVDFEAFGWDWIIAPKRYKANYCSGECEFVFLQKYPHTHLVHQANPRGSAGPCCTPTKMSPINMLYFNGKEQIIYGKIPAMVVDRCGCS
Assay: cell-based or functional assay

Binder	IC50 of the myostatin inhibitory activity (luciferase reporter assay, 0.016 to 2 µM) [nM]	myostatin inhibitory activity at 1 µM (luciferase reporter assay) [% inhibition]
B1	273	–
B2	–	≥ 40
{m‑dPEG(4)-Ahx}-FYIEWIKIQIISKLRL-NH2 [PDM-32]	–	≥ 40

Source: patent US20190177370A1 (TOKYO UNIVERSITY OF PHARMACY AND LIFE SCIENCES, published 2019)
